Assay results published in patent US6096520A, “Brain glycogen phosphorylase cancer antigen” (Ludwig Institute for Cancer Research, priority 1998, dated 2000).

B1: SEQ ID NO:1: shortest exonuclease III fragment of brain glycogen phosphorylase nucleic acid, ending 100 bp after the start codon (nucleic acid)
DNA: ATGGGCGAACCGCTGACGGACAGCGAGAAGCGGAAGCAGATCAGCGTGCGCGGCCTGGCGGGGCTAGGCGACGTGGCCGAGGTGCGGAAGAGCTTCAACCGGCACTTGCA
modifications: chemistry not fully specified
notes: shortest exonuclease III fragment of brain glycogen phosphorylase nucleic acid, ending 100 bp after the start codon
B2: SEQ ID NO:3: fragment of brain glycogen phosphorylase nucleic acid ending at position 140 (nucleic acid)
DNA: ATGGGCGAACCGCTGACGGACAGCGAGAAGCGGAAGCAGATCAGCGTGCGCGGCCTGGCGGGGCTAGGCGACGTGGCCGAG
modifications: chemistry not fully specified
B3: SEQ ID NO:2: fragment of brain glycogen phosphorylase nucleic acid ending at position 161 (nucleic acid)
DNA: ATGGGCGAACCGCTGACGGACAGCGAGAAGCGGAAGCAGATCAGCGTGCGCGGCCTGGCGGGGCTAGGCGACGTGGCCGAGGTGCGGAAGAGCTTCAACCGG
modifications: chemistry not fully specified

tested on: antigen recognized by CTL 246/76; assay: TNF release from CTL 246/76 provoked by HOB cells transfected with cDNA fragment and HLA-A2; assay type: cell-based, human; conditions: fragment cotransfected with HLA-A2 into HOB cells
Description: The transfection of HOB cells was made in duplicate wells. Briefly, samples of HOB cells were seeded, at 15,000 cells/well into tissue culture flat bottom microwells, in DMEM supplemented with 10% fetal calf serum. The cells were incubated overnight at 37° C., medium was removed and then replaced by 100 μl/well total volume of DMEM medium containing 20% Nu-Serum (Collaborative Research, Bedford, Mass.), 300 μg/ml DEAE-dextran, and 200 μM chloroquine, plus 100 ng of the LB373-MEL cDNA library cloned in pcDNAI/Amp and 50 ng of HLA-A2 cloned in pcDNAI/Amp. Following four hours of incubation at 37° C., the medium was removed, and replaced by 50 μl of PBS containing 10% dimethyl sulfoxide (DMSO). This medium was removed after two minutes and replaced by 200 μl of DMEM supplemented with 10% FCS.
Following this change in medium, HOB cells were incubated for 48 hours at 37° C. The transfectants then were screened with CTL 246/76. After first removing the medium, 2000 CTL 246/76 cells were added to each well in 100 μl of medium containing 25 U/ml IL-2. The amount of TNF present in the supernatant was then measured by testing its cytotoxicity for WEHI 164.13 cells. Most pools gave a TNF concentration below 5 pg/ml. cDNAs from pools which gave higher concentrations in both of the duplicate wells were cloned in bacteria. Their plasmid DNA was extracted and transfected into HOB cells with HLA-A2. The transfectants were screened with CTL 246/76. One cDNA clone gave a high TNF production by CTL 246/76. The cDNA was sequenced, compared with DNA sequence databases and determined to encode brain glycogen phosphorylase.
Fragments of the brain glycogen phosphorylase cDNA were prepared by exonuclease III digestion from the 3' end of the cDNA according to art standard procedures, were cloned into an expression vector and transfected into HOB cells with HLA-A2 as described above. As a positive control, the brain glycogen phosphorylase cDNA was cotransfected with HLA-A2 into HOB cells. These transfectants were used to provoke release of TNF from CTL 246/76 cells.
Shorter fragments were generated by PCR. […]

Q: How did the “confers expression of the antigen recognized by CTL 246/76” value (from here on “confers expression”) turn out when B1 was run?
A: The value was “able to confer expression of the antigen”.

Q: For B2, which “confers expression” value is on record?
A: Its value is “did not confer expression of the antigen”.

Q: For B3, which “confers expression” value is on record?
A: The value was “did confer expression of the antigen”.
